The assay addresses Human C3 (human, UniProt P01024 23-1663). The assay can be described thus: cell-based or functional assay.

Starred links: 1 amine or outer side, 2 acyl side, 3 side chain; linkers in the order of their positions; H or OH if unused. Positions of bridges follow the written chain, without caps; N, C: chain ends. Non-standard residues stand in square brackets, D forms with d. Groups on a side chain read outwards from the residue. *: point of attachment. C20 diacid = O=C(O)CCCCCCCCCCCCCCCCCCC(=O)*; Trp(1-Me) = Cn1cc(C[C@H](N)C(=O)O)c2ccccc21; C18 diacid = O=C(O)CCCCCCCCCCCCCCCCC(=O)*; C16 diacid = O=C(O)CCCCCCCCCCCCCCC(=O)*; γGlu = O=C(O)[C@H](CCC(=O)[*:2])N[*:1]; AEEA = NCCOCCOCC(=O)O; Sar = CNCC(=O)O

Human C3, sequence (P01024 23-1663 limits assumed): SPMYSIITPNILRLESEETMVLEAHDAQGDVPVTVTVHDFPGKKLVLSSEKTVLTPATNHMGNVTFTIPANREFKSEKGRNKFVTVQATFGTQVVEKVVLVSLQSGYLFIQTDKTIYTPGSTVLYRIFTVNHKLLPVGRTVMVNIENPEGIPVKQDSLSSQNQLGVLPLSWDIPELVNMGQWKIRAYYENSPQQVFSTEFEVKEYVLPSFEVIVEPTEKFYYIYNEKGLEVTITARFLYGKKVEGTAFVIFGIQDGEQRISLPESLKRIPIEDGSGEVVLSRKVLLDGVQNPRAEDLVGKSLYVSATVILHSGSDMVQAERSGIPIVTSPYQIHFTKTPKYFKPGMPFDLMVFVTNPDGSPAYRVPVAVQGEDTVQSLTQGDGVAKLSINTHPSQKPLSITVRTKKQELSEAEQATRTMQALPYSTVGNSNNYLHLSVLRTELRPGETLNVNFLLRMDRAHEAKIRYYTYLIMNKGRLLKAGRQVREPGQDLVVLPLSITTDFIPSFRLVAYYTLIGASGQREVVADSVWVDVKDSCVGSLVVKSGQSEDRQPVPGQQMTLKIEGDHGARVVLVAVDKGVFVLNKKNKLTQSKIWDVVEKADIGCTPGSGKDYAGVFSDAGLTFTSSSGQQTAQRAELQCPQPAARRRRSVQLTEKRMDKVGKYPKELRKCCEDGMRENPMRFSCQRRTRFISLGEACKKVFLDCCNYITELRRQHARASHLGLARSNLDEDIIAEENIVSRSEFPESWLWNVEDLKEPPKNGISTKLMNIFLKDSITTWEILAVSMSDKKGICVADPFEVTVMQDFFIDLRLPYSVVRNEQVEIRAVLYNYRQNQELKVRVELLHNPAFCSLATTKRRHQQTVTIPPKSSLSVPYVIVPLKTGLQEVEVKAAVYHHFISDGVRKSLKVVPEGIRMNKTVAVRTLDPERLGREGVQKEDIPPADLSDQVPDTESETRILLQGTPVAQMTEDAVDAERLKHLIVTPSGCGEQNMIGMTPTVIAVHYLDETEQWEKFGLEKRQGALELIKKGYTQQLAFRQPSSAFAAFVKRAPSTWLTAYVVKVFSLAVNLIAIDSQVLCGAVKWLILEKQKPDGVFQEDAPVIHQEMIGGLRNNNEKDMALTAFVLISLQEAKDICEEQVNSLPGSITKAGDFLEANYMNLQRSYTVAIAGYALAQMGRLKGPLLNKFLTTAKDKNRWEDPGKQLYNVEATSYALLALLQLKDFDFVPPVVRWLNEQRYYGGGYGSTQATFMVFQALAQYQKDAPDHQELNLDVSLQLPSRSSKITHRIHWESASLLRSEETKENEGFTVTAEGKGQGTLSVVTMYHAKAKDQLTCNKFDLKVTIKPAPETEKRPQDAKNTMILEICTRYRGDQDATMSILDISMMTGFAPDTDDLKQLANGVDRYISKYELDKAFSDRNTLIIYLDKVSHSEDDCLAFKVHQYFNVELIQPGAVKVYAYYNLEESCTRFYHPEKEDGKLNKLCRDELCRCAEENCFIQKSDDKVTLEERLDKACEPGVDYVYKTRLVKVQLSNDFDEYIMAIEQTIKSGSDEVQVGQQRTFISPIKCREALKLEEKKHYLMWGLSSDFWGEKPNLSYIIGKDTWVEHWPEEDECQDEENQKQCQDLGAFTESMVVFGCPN

B1: Compound 106 (peptide)
peptide: Ac-SAYCI[Trp(1-Me)]QDWGEHRC[Sar]EK([γGlu-Gly-γGlu-C18 diacid])-NH2
modifications: disulfide 4-14
SMILES: CC[C@H](C)[C@@H]1NC(=O)[C@@H](NC(=O)[C@H](Cc2ccc(O)cc2)NC(=O)[C@H](C)NC(=O)[C@H](CO)NC(C)=O)CSSC[C@@H](C(=O)N(C)CC(=O)N[C@@H](CCC(=O)O)C(=O)N[C@@H](CCCCNC(=O)CC[C@H](NC(=O)CNC(=O)CC[C@H](NC(=O)CCCCCCCCCCCCCCCCC(=O)O)C(=O)O)C(=O)O)C(N)=O)NC(=O)[C@H](CCCNC(=N)N)NC(=O)[C@H](Cc2c[nH]cn2)NC(=O)[C@H](CCC(=O)O)NC(=O)CNC(=O)[C@H](Cc2c[nH]c3ccccc23)NC(=O)[C@H](CC(=O)O)NC(=O)[C@H](CCC(N)=O)NC(=O)[C@H](Cc2cn(C)c3ccccc23)NC1=O
As to B1, the “IC50[nM], inhibition of hemolysis” value was under 250 nM.

B2: Compound 118 (peptide)
peptide: Ac-SEYCI[Trp(1-Me)]QDWGEHRC[Sar]EGAK([AEEA-γGlu-AEEA-Gly-γGlu-C18 diacid])-NH2
modifications: disulfide 4-14
SMILES: CC[C@H](C)[C@@H]1NC(=O)[C@@H](NC(=O)[C@H](Cc2ccc(O)cc2)NC(=O)[C@H](CCC(=O)O)NC(=O)[C@H](CO)NC(C)=O)CSSC[C@@H](C(=O)N(C)CC(=O)N[C@@H](CCC(=O)O)C(=O)NCC(=O)N[C@@H](C)C(=O)N[C@@H](CCCCNC(=O)COCCOCCNC(=O)CC[C@H](NC(=O)COCCOCCNC(=O)CNC(=O)CC[C@H](NC(=O)CCCCCCCCCCCCCCCCC(=O)O)C(=O)O)C(=O)O)C(N)=O)NC(=O)[C@H](CCCNC(=N)N)NC(=O)[C@H](Cc2c[nH]cn2)NC(=O)[C@H](CCC(=O)O)NC(=O)CNC(=O)[C@H](Cc2c[nH]c3ccccc23)NC(=O)[C@H](CC(=O)O)NC(=O)[C@H](CCC(N)=O)NC(=O)[C@H](Cc2cn(C)c3ccccc23)NC1=O
B2: the “IC50[nM], inhibition of hemolysis” value is under 100 nM.

B3: Compound 101 (peptide)
peptide: Ac-EGSAICIWQDWGEHRCTEGK([γGlu-C16 diacid])-NH2
modifications: disulfide 6-16
SMILES: CC[C@H](C)[C@H](NC(=O)[C@H](C)NC(=O)[C@H](CO)NC(=O)CNC(=O)[C@H](CCC(=O)O)NC(C)=O)C(=O)N[C@H]1CSSC[C@@H](C(=O)N[C@H](C(=O)N[C@@H](CCC(=O)O)C(=O)NCC(=O)N[C@@H](CCCCNC(=O)CC[C@H](NC(=O)CCCCCCCCCCCCCCC(=O)O)C(=O)O)C(N)=O)[C@@H](C)O)NC(=O)[C@H](CCCNC(=N)N)NC(=O)[C@H](Cc2c[nH]cn2)NC(=O)[C@H](CCC(=O)O)NC(=O)CNC(=O)[C@H](Cc2c[nH]c3ccccc23)NC(=O)[C@H](CC(=O)O)NC(=O)[C@H](CCC(N)=O)NC(=O)[C@H](Cc2c[nH]c3ccccc23)NC(=O)[C@H]([C@@H](C)CC)NC1=O
As for B3, the “IC50[nM], inhibition of hemolysis” value is under 500 nM.

B4: Compound 97 (peptide)
peptide: Ac-ICIWQDWGEHRCTEGEK([AEEA-AEEA-γGlu-C18 diacid])-NH2
modifications: disulfide 2-12
SMILES: CC[C@H](C)[C@H](NC(C)=O)C(=O)N[C@H]1CSSC[C@@H](C(=O)N[C@H](C(=O)N[C@@H](CCC(=O)O)C(=O)NCC(=O)N[C@@H](CCC(=O)O)C(=O)N[C@@H](CCCCNC(=O)COCCOCCNC(=O)COCCOCCNC(=O)CC[C@H](NC(=O)CCCCCCCCCCCCCCCCC(=O)O)C(=O)O)C(N)=O)[C@@H](C)O)NC(=O)[C@H](CCCNC(=N)N)NC(=O)[C@H](Cc2c[nH]cn2)NC(=O)[C@H](CCC(=O)O)NC(=O)CNC(=O)[C@H](Cc2c[nH]c3ccccc23)NC(=O)[C@H](CC(=O)O)NC(=O)[C@H](CCC(N)=O)NC(=O)[C@H](Cc2c[nH]c3ccccc23)NC(=O)[C@H]([C@@H](C)CC)NC1=O
Consider B4, for which the “IC50[nM], inhibition of hemolysis” value was under 250 nM. In the case of {15‑Carboxy‑pentadecanoyl}-ESSAICIWQDWGEHRCTEGE-NH2 (disulfide 6-16) [Compound 99] it was under 250 nM.

B5: Compound 5 (peptide)
peptide: Ac-ICIWQDWGKHRCT-NH2
modifications: disulfide 2-12
SMILES: CC[C@H](C)[C@H](NC(C)=O)C(=O)N[C@H]1CSSC[C@@H](C(=O)N[C@H](C(N)=O)[C@@H](C)O)NC(=O)[C@H](CCCNC(=N)N)NC(=O)[C@H](Cc2c[nH]cn2)NC(=O)[C@H](CCCCN)NC(=O)CNC(=O)[C@H](Cc2c[nH]c3ccccc23)NC(=O)[C@H](CC(=O)O)NC(=O)[C@H](CCC(N)=O)NC(=O)[C@H](Cc2c[nH]c3ccccc23)NC(=O)[C@H]([C@@H](C)CC)NC1=O
As for B5, the “IC50[nM], inhibition of hemolysis” value is under 250 nM.

B6: Compound 98 (peptide)
peptide: Ac-ICIWQDWGEHRCTEGK([AEEA-AEEA-γGlu-C20 diacid])-NH2
modifications: disulfide 2-12
SMILES: CC[C@H](C)[C@H](NC(C)=O)C(=O)N[C@H]1CSSC[C@@H](C(=O)N[C@H](C(=O)N[C@@H](CCC(=O)O)C(=O)NCC(=O)N[C@@H](CCCCNC(=O)COCCOCCNC(=O)COCCOCCNC(=O)CC[C@H](NC(=O)CCCCCCCCCCCCCCCCCCC(=O)O)C(=O)O)C(N)=O)[C@@H](C)O)NC(=O)[C@H](CCCNC(=N)N)NC(=O)[C@H](Cc2c[nH]cn2)NC(=O)[C@H](CCC(=O)O)NC(=O)CNC(=O)[C@H](Cc2c[nH]c3ccccc23)NC(=O)[C@H](CC(=O)O)NC(=O)[C@H](CCC(N)=O)NC(=O)[C@H](Cc2c[nH]c3ccccc23)NC(=O)[C@H]([C@@H](C)CC)NC1=O
B6: the “IC50[nM], inhibition of hemolysis” value was under 500 nM.

Turning to Ac-SEFCI[Trp(1-Me)]QDWGEHRC[Sar]EGE[AEEA][AEEA]K([γGlu-Gly-γGlu-C18 diacid])-NH2 (disulfide 4-14) [Compound 123], the “IC50[nM], inhibition of hemolysis” value is under 100 nM.

B7: Compound 152 (peptide)
peptide: SEFCIWQDWGEHRAGEGEXXK
modifications: not fully specified; N-acetyl; C-terminal amide; gamma-cystathionine (Ctt1) thioether bridge hCys4-A14 (hCys written C); W6 is 1-Me-Trp; G15 is Sar; X19 and X20 are Peg3; K21 side chain bears [17-carboxy-heptadecanoyl][γGlu]G[γGlu]
Regarding B7, the “IC50[nM], inhibition of hemolysis” value is under 100 nM.

B8: Compound 53 (peptide)
peptide: Ac-EGSAFCI[Trp(1-Me)]QDWGEHRC[Sar]E-NH2
modifications: disulfide 6-16
SMILES: CC[C@H](C)[C@@H]1NC(=O)[C@@H](NC(=O)[C@H](Cc2ccccc2)NC(=O)[C@H](C)NC(=O)[C@H](CO)NC(=O)CNC(=O)[C@H](CCC(=O)O)NC(C)=O)CSSC[C@@H](C(=O)N(C)CC(=O)N[C@@H](CCC(=O)O)C(N)=O)NC(=O)[C@H](CCCNC(=N)N)NC(=O)[C@H](Cc2c[nH]cn2)NC(=O)[C@H](CCC(=O)O)NC(=O)CNC(=O)[C@H](Cc2c[nH]c3ccccc23)NC(=O)[C@H](CC(=O)O)NC(=O)[C@H](CCC(N)=O)NC(=O)[C@H](Cc2cn(C)c3ccccc23)NC1=O
As for B8, the “IC50[nM], inhibition of hemolysis” value was under 100 nM.

The values are drawn from patent US20220306695A1, “COMPSTATIN ANALOGUES AND THEIR MEDICAL USES” (priority 2019, published 2022).
